Data published in the supplement of paper PMC10567573.
± gives the standard deviation.

Experiment: protein stability index of a GFP-peptide fusion (GPS, HEK-293T) (PSI 1-6); higher = more stable
[1] = treatment: DMSO, c terminus: a fixed tail appended
[2] = treatment: MLN4924 1 uM, 8 h, c terminus: a fixed tail appended
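Also: 24-mer peptide tiles fused after GFP, lentivirally expressed, FACS-sorted into six equal bins by GFP/DsRed ratio, decoded by Illumina sequencing, PSI is the read-weighted mean bin number.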

Sequence	protein stability index [1]	protein stability index [2]	protein stability index (treatment: DMSO, c terminus: native)	protein stability index (treatment: MLN4924 1 uM, 8 h, c terminus: native)
AQLFMDHLFAGAEVILLVVMAYDR [OR4A15]	2.2 ± 0.74	2.75 ± 1		
QPRKKYVQRKSDFDQTVFQEVFEP [NETO1]	4.14 ± 0.22	4.26 ± 0.2		
STLPRSGSSGGQQPSGMKEGVKRY [CHCHD6]	4.49 ± 0.35	4.8 ± 0.29		
IIVNLLWFIHLVFVVLAFLTGVLC [TMEM192]	2.78 ± 0.58	2.3 ± 0.48		
INHGAEVTCKDKKGYTPLHAAASN [ANKRD44]	4.23 ± 0.16	4.2 ± 0.24		
SGKWTFQRDSKRWSRLEEFDVFSP [DLC1]	2.46 ± 0.28	2.53 ± 0.34		
SDFEWLKNELERDSKIVVPPLPGK [SNX12]	4.07 ± 0.32	4.13 ± 0.14		
HGAHKAEKKLFECLTCGKSFRQGM [ZNF263]	2.67 ± 0.27	2.78 ± 0.25		
NSSEELSSALHLSKGMSIFLDILR [NECAB1]	2.38 ± 0.13	2.54 ± 0.21		
YKDTCHELDELQLCKNCFYLSNAR [ZMYND11]	2.66 ± 0.31	3.02 ± 0.25		
QEVTEPAVVAVDRQAIFPDTWTLT [PXN]	4.06 ± 0.23	3.8 ± 0.36		
CSIALLRALATSNARAQQRAAAQQ [GNAS]	2.23 ± 0.23	2.27 ± 0.12		
CVNMDRSFACQCPEGHVLRSDGKT [MATN2]	3.92 ± 0.21	4.22 ± 0.73		
QKDSYQPPGNVYWPLRGKREAMLE [SPAG8]	3.58 ± 0.31	3.62 ± 0.41		
KKNSSPPLSLYGQLLWREFFYTAA [CRY1]	2.42 ± 0.46	2.67 ± 0.63		
IGQVHEEFKQNIENVSVEMLLRKF [FCHO1]	3.05 ± 0.3	3.32 ± 0.23		
CRLKKCFRAGMKKEAVQNERDRIS [HNF4A]	3.22 ± 0.27	3.44 ± 0.25		
ERELLGQDEETAMRKSLGEEELS [RSPH3]			5.48 ± 0.4	5.575 ± 0.042
GHEEMVALLLGQGANINAQTEETQ [ANKRD17]	4.81 ± 0.28	4.96 ± 0.19		
IKALFRKGKVLAQQGEYSEAIPIL [FKBP8]	2.54 ± 0.38	2.36 ± 0.42		
MGTRRKHLGCAVYQDMIYAVGGRD [KLHL20]	2.33 ± 0.27	2.29 ± 0.56		
QHTPDQANSDRASIGRRRTELRRS [PLEKHN1]	4.95 ± 0.38	5.34 ± 0.19		
QIAQLEASLAAAKKQLADETLLKV [LMNB1]	2.72 ± 0.65	2.8 ± 0.46		

Sequence	protein stability index [1]	protein stability index [2]	protein stability index (treatment: DMSO, c terminus: native)	protein stability index (treatment: MLN4924 1 uM, 8 h, c terminus: native)
AVTSLSSQIQYMNTVVSTYVTTNV [TMEM106C]	2.58 ± 0.67	2.51 ± 0.39		
MSSENCFVAENSSLHPESGQENDA [CD69]	5.71 ± 0.19	5.54 ± 0.096		
ARHNYNDLCPPIGRRAATALLWLS [GNAS]	2.15 ± 0.43	2.27 ± 0.35		
VTLKYEIKKLIYVHLVIWLLLVAK [JAGN1]	2.33 ± 0.52	2.27 ± 0.3		
VFLVDICLLTYGMTSSSAYYYTKV [PKD2L1]	2.98 ± 0.2	2.84 ± 0.58		
SWACAFTNALTHTVAMSTLNFCGP [OR3A1]	3.47 ± 0.13	3.15 ± 0.049		
LLTTSPVFPHYIEKPLGRVGVFLD [TRIM43]	2.08 ± 0.12	2.31 ± 0.25		
VELYRIKFKESFAEMNRGSNEWKT [COX4I1]	2.23 ± 0.29	2.07 ± 0.45		
ASEFLEQSMSQTRELLLDGGYLQR [RSPH3]	3.58 ± 0.43	3.55 ± 0.51		
LEERRVKEVVKKHSQFIGYPITLY [HSP90AB1]	2.48 ± 0.068			
VGNYRLKEYEKALKYVRGLLQTEP [FIS1]	2.19 ± 0.22	2.5 ± 0.32		
DLIESDPDAWCDLSKFDLPEEPSA [MYBL2]	5.01 ± 0.35	5.02 ± 0.17		
PLLLFTYLNSFLHQRIPQSVRILG [SLC29A1]	2.96 ± 0.54	2.97 ± 0.54		
LESEGKNSKKEEPQELLQSQDFVG [ATE1]	5.73 ± 0.27	5.54 ± 0.14		
SHGANVNHTTVTNSTPLRAACFDG [FEM1B]	4.02 ± 0.14	4.25 ± 0.086		
IFLNGNRERPLNVFCDMETDGGGW [TNXB]	1.91 ± 0.48	2.67 ± 0.54		
DSDDPSVTLELSQLSMLPHLADLV [VDR]	3.41 ± 0.31	3.62 ± 0.33		
IDEIISLESSYNDEMLSYLPGGTT [TFE3]	3.96 ± 0.16	3.88 ± 0.32		
CGSRRERCGYRLVRRQRSADEQLH [ESR2]	2.79 ± 0.36	2.93 ± 0.29		
TSPLTAEKLCIYTDNSIKPQELLE [CCND2]	4.05 ± 0.23	4.08 ± 0.27		
SDFKTDKEGGQAGSGQRVPALEEA [ELOA2]	5.61 ± 0.18	5.49 ± 0.22		
GIQLLIVEYKDIASIHWDWKIALL [SLC35F2]	2.58 ± 0.61	2.69 ± 0.78		
GPFDLMSRRVIAANNRILAERIAK [IMPA1]	2.54 ± 0.39	3.46 ± 0.59		

Sequence	protein stability index [1]	protein stability index [2]	protein stability index (treatment: DMSO, c terminus: native)	protein stability index (treatment: MLN4924 1 uM, 8 h, c terminus: native)
AGVGLSGGAAGAGWCIFVYNLSPE [ELAVL3]	3.13 ± 0.71	2.71 ± 0.26		
QVAFGSLYRDDVLIKPSRVVAILA [GMCL1]	2.38 ± 0.62	2.46 ± 0.48		
KKLRLNGGRNPYEGRVEVLVERNG [LOXL2]	3.05 ± 0.13	4.01 ± 0.18		
TGTSNTTAIKSIEFARKGSCFLIN [RBBP5]	2.42 ± 0.26	2.42 ± 0.22		
PPPPPNEINPPPHTMEEEEDDDWG [EIF5]	5.48 ± 0.17	5.61 ± 0.22		
SILKAMGKTKKDYQEASNLEQFVT [NECAB1]	2.89 ± 0.41	3.04 ± 0.33		
IHFTLIQAFCCENDINILRVSNPG [GADD45A]	3 ± 0.46	2.71 ± 0.45		
VAPATWSAGVPPSAPLQGAVPPTS [SNAP91]	4.38 ± 0.25	4.39 ± 0.29		
CGDELPWTLQRRLTRLRTASGHEP [PLEKHN1]	2.68 ± 0.12	2.7 ± 0.34		
QAAVAAGDVHTVRKMLEQGYSPNG [ASB7]	4.09 ± 0.31	4.11 ± 0.12		
YQYFVCPVEYRSDVNSFVTECEPS [CDS1]	2.35 ± 0.26	2.36 ± 0.37		
EIYKRFLTRMTRVSEFLKVAEQVG [SNAP91]	2.44 ± 0.63	2.45 ± 0.24		
NRNQGLNRLMLAVRDMMANFHLND [TCF25]	2.1 ± 0.16	2.24 ± 0.37		
AVPAAATRTTSFKGTSPSSKYVKL [KCTD10]	3.87 ± 0.2	3.99 ± 0.28		
MPYNFCLPSLSCRTSCSSRPCVPP [KRT33B]	2.34 ± 0.41	2.18 ± 0.45		
EDDWPRDVSLPRGAFPPRGPRPVQ [CDK4]	4.57 ± 0.18	4.6 ± 0.24		
VSISIISSTSGGSGYGFRPSMVSG [KRT71]	2.84 ± 0.52	3.01 ± 0.93		
TEKSGKREFDVRQTPQVNINPFTP [WEE1]	4.42 ± 0.25	4.25 ± 0.094		
QSEESDQGKYECVATNSAGTRYSA [PTPRD]	5.23 ± 0.33	5.23 ± 0.34		
DEEVSSLTCDALTELLAKITNTDV [CCND2]	4.04 ± 0.44	4.28 ± 0.078		
TYMSADDLRINLWNFEITNQSFNI [PPP2R2B]	2.43 ± 0.66	2.53 ± 0.3		
LQWKSSHFERRDNMNDNFLEGEEE [CHGB]	5.36 ± 0.44	5.49 ± 0.23		
TQRQFTILNFNDLMSSAVPMTPED [AASDHPPT]	3.74 ± 0.14	3.38 ± 0.35		

Sequence	protein stability index [1]	protein stability index [2]	protein stability index (treatment: DMSO, c terminus: native)	protein stability index (treatment: MLN4924 1 uM, 8 h, c terminus: native)
IFEPPVRNSGIIGGKYLGRTKVVK [EFHC1]	3.42 ± 0.3	3.62 ± 0.28		
TLRLEKLGHPALSQEEGKSALEDQ [PPFIA4]	5.38 ± 0.19	5.14 ± 0.21		
SAEYVGHLRATEKMKTRELHRESS [HDAC6]	4.62 ± 0.36	4.47 ± 0.4		
HKLDLNTREWTQLKPNNLSCDLPE [KLHDC10]	4.4 ± 0.12	4.41 ± 0.3		
KKHKNSQLDKNSEVYQEVQAMFDT [FAM98B]	4.31 ± 0.39	4.27 ± 0.35		
PETVMTTLYTAKKYAVPALEAHCV [BTBD1]	2.7 ± 0.13	2.83 ± 0.15		
CKDFLCQFCAQRFGRKDHLTRHTK [PLAGL1]	2.63 ± 0.25	3.09 ± 0.64		
LQAFGETLLLELEQDSGVQVEGLT [ADAMTS4]	3.65 ± 0.63	3.79 ± 0.27		
AWLTEEEPEPAEVTSTSQSPHSPD [DDIT3]	5.59 ± 0.23	5.63 ± 0.21		
SMISMGLFSIAPLIYGSMEMFPAA [JAGN1]	3.08 ± 0.29	3.23 ± 0.32		
FPGVVARPIGEFRSNADYQYQLLR [CNOT7]	3.05 ± 0.3	2.97 ± 0.2		
LHSAIYAARPDVKCVVHIHTPAGA [ADD1]	2.24 ± 0.22	2.11 ± 0.28		
LQQIQGLIGGLEAQLSELRCEMEA [KRT15]	3.52 ± 0.43	3.67 ± 0.41		
TSFPGRGSIPEFFHIMKRKFTNKE [AASDHPPT]	3.179 ± 0.024	3.21 ± 0.72		
KRIEAEEAIKGLNGQKPLGAAEPI [ELAVL3]	4.77 ± 0.16	4.951 ± 0.042		
CYDVYSPDKEEQLPFGPFNGTAWT [PKD2L1]	2.75 ± 0.14	2.59 ± 0.12		
LSQVELQAAPGALPVSSPEPPPAL [TRIM55]	4.79 ± 0.14	4.69 ± 0.21		
TALGGQCVDRQEVAEITKQLPPVV [TCAP]	4.07 ± 0.25	4.27 ± 0.13		
LLETDAGPAASEGAEQPPDLHCVL [GADD45A]	4.82 ± 0.29	4.78 ± 0.18		
RAMHLMKKREKQREQMEQMKQRIA [FAM50A]	3.27 ± 0.24	3.51 ± 0.14		
